From patent publication US20140308316A1, “ANTIGEN PRESENTING CANCER VACCINE WITH GAMMA INTERFERON” (CALIFORNIA STEM CELL, INC., priority 2011, published 2014)

Tests used:
SK-5-Mel cells [1] = assay: Autophagy by flow cytometry with Enzo Cyto-ID Autophagy Detection Dye; format: cell-based; conditions: for effect on autophagy in IFN-gamma treated cells: z-VAD 20 uM with 1000 IU/mL IFN-gamma, 72 hours
Method: FIGS. 6A and 6B reveal apoptosis and autophagy induced in response to interferon-gamma. SK-5-Mel cells were incubated with 1000 IU/mL of IFN-gamma for 72 hours after which non-adherent and adherent populations were collected and assayed for apoptosis and autophagy by flow cytometry using 7-AAD and Annexin-V (FIG. 6A). Enzo Cyto-ID Autophagy Detection Dye was used to measure autophagy by flow cytometry by measuring the mean intensity peak shift of dye provided by the manufacturer (FIG. […]). Fold changes in the peak shift in comparison to 5% FBS/RPMI are shown in FIG. 6C with serum-free as positive control for the induction of autophagy.
SK-5-Mel cells were treated with 1000 IU/mL of IFN-gamma in the presence of 20 uM of the pan-caspase inhibitor z-VAD or its control compound, z-FA for 72 hours. The cells were harvested and assayed for autophagy by flow cytometry as in FIG. 6C.
(§1) The methodology of the study was as follows. Autologous and model melanoma tumor cell lines were incubated with 1000 IU/mL of IFN-gamma for 72 hours prior to assaying for autophagy, apoptosis and MHC class II expression. Autophagy was detected by immunobloting with antibodies against LC3 II and by flow cytometry with Enzo's CytoID® Autophagy Detection Kit. Apoptosis and MHC class II induction were assayed by flow cytometry using 7-AAD and annexin-V staining and antibodies against MHC class II, respectively.
(§2) The commercially available melanoma cell lines A375, SK-Mel-5 and SK-Mel-28 were purchased from American Type Culture Collection (Catalogue numbers: CRL-1619, HTB-70, and HTB-72). A375, SK-Mel-5, and SK-Mel-28 were maintained in 5% fetal bovine serum in RPMI-1640 (Invitrogen, catalogue number 11875-085). […]
(§3) What was investigated was the induction of autophagy, apoptosis and MHC class II molecules after IFN-gamma treatment of melanoma tumor cells in vitro. […] Autophagy was detected by immunobloting with antibodies against LC3 II and by flow cytometry with Enzo's CytoID Autophagy Detection Kit. […]

melanoma cell lines = assay: Apoptosis by flow cytometry using 7-AAD and annexin-V; format: cell-based; conditions: pan caspase inhibitor with IFN-gamma
Method: as §1
Analysis of tumor cell death and changes in major histocompatibility class II expression in response to IFN-gamma were conducted by use of antibodies directed against MHC class II, annexin-V and 7-amino-actinomycin D (7-AAD) and acquired on a Beckton-Dickenson FACS Calibur® flow cytometer.
What was investigated was the induction of autophagy, apoptosis and MHC class II molecules after IFN-gamma treatment of melanoma tumor cells in vitro. Autologous and model melanoma tumor cell lines were incubated with 1000 IU/mL of IFN-gamma for 72 hours prior to assaying for autophagy, apoptosis and MHC class II expression. Autophagy was detected by immunobloting with antibodies against LC3 II and by flow cytometry with Enzo's CytoID Autophagy Detection Kit. […]

MHC class I = assay: Flow cytometry for MHC class I on IFN-gamma treated autologous tumor cells; format: cell-based, human; conditions: 1000 IU/mL IFN-gamma 72 hours, N=65, p=2.8×10^−8
Method: (§4) FIGS. 2A-D show characterization of IFN-gamma treated autologous tumor cells used for loading dendritic cells. Autologous melanoma tumor cells were treated with or without 1000 IU/mL IFN-gamma for 72 hours in 15% FBS/ECS in RPMI, harvested and irradiated with 100 Gy and cryopreserved. Cells were then thawed in AIMV and a sample taken for flow cytometry and for preparation of cell lysates for immunoblotting prior to antigen loading of DCs. An example of four separate autologous melanoma cell lines is shown (FIG. 2A, FIG. 2B and FIG. 2C). Induction major histocompatibility complexes by IFN-gamma treatment of autologous tumor cells (FIG. 2D). Tumor cells were harvested after being treated with or without 1000 IU/mL IFN-gamma for 72 hours and then assayed for MHC class I and class II. Control isotype antibodies were used to identify positive populations. Dark data points indicate median mean fluorescent plus/minus 95% confidence interval, N=65. […]

MHC class II = assay: Flow cytometry for MHC class II on IFN-gamma treated autologous tumor cells; format: cell-based, human
Method: as §4

[2] = system: melanoma cell lines used in patient-specific dendritic cell therapy; assay: Immunohistochemistry of tumor associated antigens in melanoma lines with or without IFN-gamma; format: cell-based, human; conditions: 1000 IU/mL IFN-gamma, 72 hours, N=27 samples
Method: Expression of a panel antigens by melanoma lines were determined using immunocytochemical procedure. Ceils were cultured in 8-chamber culture slides (Thermo Fisher, Rochester, N.Y.) in the presence or absence of 1000 IU/mL IFN-gamma. After 72 hours, the cells were washed 3 times with 1× Phosphate Buffered Saline (PBS) and fixed in cold acetone. After blocking endogenous peroxidase, cells were incubated with appropriate primary antibodies against the antigens listed. Immunohistochemistry was performed using biotinylated antimouse or rabbit immunoglobulins. Super Sensitive enzyme-conjugated streptavidin labeling and horse radish peroxidase chromogen, and substrate kits (Biogenex, San Ramon, Calif.). The reactivity of the following anti-human polyclonal or monoclonal antibodies was investigated with isotype matched control antibody: S-100 and HMB-45 (Biogenex, San Ramon, Calif.), Mel-2, Mel-5, Mart-1 (Signet, Dedham, Mass.), Tyrosinase and Mage-1 (Thermo Scientific, Fremont, Calif.), Melan-A, HLA-class I and HLA-class II (Dako Denmark).
Table I: Change in the expression level of common tumor associated antigens in response to interferon-gamma in melanoma cell lines used patient-specific cell based dendritic cell therapy.

[3] = system: autologous melanoma cell lines; assay: Immunoblot of lysates from melanoma cells incubated with or without IFN-gamma; format: cell-based, human; conditions: IFN-gamma treated vs untreated
Method: FIGS. 2A-D show characterization of IFN-gamma treated autologous tumor cells used for loading dendritic cells. Autologous melanoma tumor cells were treated with or without 1000 IU/mL IFN-gamma for 72 hours in 15% FBS/ECS in RPMI, harvested and irradiated with 100 Gy and cryopreserved. Cells were then thawed in AIMV and a sample taken for flow cytometry and for preparation of cell lysates for immunoblotting prior to antigen loading of DCs. An example of four separate autologous melanoma cell lines is shown (FIG. 2A, FIG. 2B and FIG. 2C). Induction major histocompatibility complexes by IFN-gamma treatment of autologous tumor cells (FIG. 2D). Tumor cells were harvested after being treated with or without 1000 IU/mL IFN-gamma for 72 hours and then assayed for MHC class I and class II. Control isotype antibodies were used to identify positive populations. Dark data points indicate median mean fluorescent plus/minus 95% confidence interval, N=65.
Cytoplasmic cell lysates were prepared with Mammalian Protein Extraction Reagent (Thermo Scientific, Rockford, Ill.) plus protease inhibitor cocktail (Roche, Indianapolis, Ind.) at 10,000 cells/uL on ice. Approximately 25 uLs/lane of cell lysates were separated on 12.5% tris-glycine gels, transferred to PVDF membrane and probed with antibodies against the following: calreticulin (MBL, Woburn, Mass.), Hsp-60, Hsp-70, Hsp-90 (R&D Systems, Minneapolis, Minn.), HMBG-1 (Cell Signaling, Danvers, Mass.), ICAM-1 (Santa Cruz Biotech, Santa Cruz, Calif.), Mel-4, Mart-1 (Signet, Emeryville, Calif.), tyrosinase (Upstate, Lake Placid, N.Y.) and GADPH (Calbiochem, Darmstadt, Germany).
Lysates from cells that were incubated in the presence or absence of IFN-gamma were subjected to immunoblotting for a variety of molecules that may be important mediators of immunity (FIG. 1B). In the setting of melanoma cells treated with IFN-gamma, heat shock proteins appear to be differentially regulated but remain largely present in the cell preparations, especially in the case of hsp-70.

melanoma tumor cells = assay: Sensitivity of IFN-gamma treated melanoma tumor cells to cytotoxic T lymphocyte activity; format: cell-based
SK-5-Mel cells [4] = assay: MHC class II (HLA-DR) expression by flow cytometry with autophagy inhibitor 3-MA; format: cell-based; conditions: 1000 IU/mL IFN-gamma 72 hours; 3-MA 10 uM where present
Method: The cells were then harvested and assayed for apoptosis and MHC class II (HLA-DR) expression by flow cytometry.
as §1, §2, §3

“carbobenzoxy-valyl-alanyl-aspartyl-[O-methyl]-fluoromethylketone [Z-VAD]” was tested, and the “effect on autophagy in IFN-gamma treated cells” value (SK-5-Mel cells [1]) was “does not perturb autophagy”, the “effect on autophagy in IFN-gamma treated cells” value (SK-5-Mel cells [1]; listed as z-VAD) was “did not affect” and the “effect on apoptosis in IFN-gamma treated cells” value (melanoma cell lines) was “prevents apoptosis”.

B1: interferon-gamma (protein, UniProt P01579 24-161, looked up)
Interferon gamma: QDPYVKEAENLKKYFNAGHSDVADNGTLFLGILKNWKEESDRKIMQSQIVSFYFKLFKNFKDDQSIQKSVETIKEDMNVKFFNSNKKKRDDFEKLTNYSVTDLNVQRKAIHELIQVMAELSPAAKTGKRKRSQMLFRG
notes: interferon-gamma (InterMune), type II interferon, used at 1000 IU/mL for 72 hours on tumor cells
For B1, the “MHC class I median fold induction (95% C.I.)” value (MHC class I) was 2.91±1.13 fold, the “MHC class II mean fluorescence intensity, median induction (95% C.I.)” value (MHC class II; 1000 IU/mL IFN-gamma 72 hours, N=65, p=0.039) was 4.23±2.66 and the “cases with MHC class II induction greater than two fold” value (MHC class II; in response to IFN-gamma treatment) was 70%. The “Change after IFN-gamma treatment: None” value ([2]; HMB-45) was 54.5%, the “Change after IFN-gamma treatment: Down” value ([2]; MAGE-1) was 81.5% and the “Change after IFN-gamma treatment: None” value ([2]; MAGE-1) was 38.5%. The “Change after IFN-gamma treatment: Down” value ([2]; MART-1) was 85.2%, the “Change after IFN-gamma treatment: None” value ([2]; MART-1) was 14.8% and the “Change after IFN-gamma treatment: Down” value ([2]; Mel-2) was 53.8%. The “Change after IFN-gamma treatment: None” value ([2]; Mel-2) was 48.2%, the “Change after IFN-gamma treatment: Down” value ([2]; Mel-5) was 27.3% and the “Change after IFN-gamma treatment: None” value ([2]; Mel-5) was 72.7%. The “Change after IFN-gamma treatment: Down” value ([2]; Melan-A) was 70.8%, the “Change after IFN-gamma treatment: None” value ([2]; Melan-A) was 29.2% and the “Change after IFN-gamma treatment: Down” value ([2]; S-100) was 57.1%. The “Change after IFN-gamma treatment: None” value ([2]; S-100) was 42.9%, the “Change after IFN-gamma treatment: Down” value ([2]; Tyrosinase) was 80.0% and the “Change after IFN-gamma treatment: None” value ([2]; Tyrosinase) was 40.0%. For the same molecule, the ICAM-1 expression [3] was “significantly up-regulated”, the “calreticulin and high-mobility group box-1 protein expression” value [3] was “up-regulated in some cases” and the “common melanoma antigens (mel-4, Mart-1 and tyrosinase) expression” value [3] was “down regulated”. For the same molecule, the “sensitivity to cytotoxic T lymphocyte (CTL) activity” value (melanoma tumor cells) was “more sensitive”, the “MHC class II positive cells” value (SK-5-Mel cells [4]) was 39.4% and the “autophagy, fold change” value (SK-5-Mel cells [1]; 1000 IU/mL IFN-gamma 72 hours, z-VAD 20 uM where present, peak shift vs 5% FBS/RPMI) was 2.75±0.15 fold change.
